From publication PMC4039619 (Matrix biology : journal of the International Society for …, 2014)

Target: human recombinant IR-A extracellular domain (Met 1-Lys 944) with C-terminal polyhistidine tag (human, UniProt P06213-2 28-944)
Test: ELISA

B1: human recombinant decorin protein core (natural protein, UniProt P07585 31-359, looked up)
chain: DEASGIGPEVPDDRDFEPSLGPVCPFRCQCHLRVVQCSDLGLDKVPKDLPPDTTLLDLQNNKITEIKDGDFKNLKNLHALILVNNKISKVSPGAFTPLVKLERLYLSKNQLKELPEKMPKTLQELRAHENEITKVRKVTFNGLNQMIVIELGTNPLKSSGIENGAFQGMKKLSYIRIADTNITSIPQGLPPSLTELHLDGNKISRVDAASLKGLNNLAKLGLSFNSISAVDNGSLANTPHLRELHLDNNKLTRVPGGLAEHKYIQVVYLHNNNISVVGSSDFCPPGHNTKKASYSGVSLFSNPVQYWEIQPSTFRCVYVRSAIQLGNYK
In the case of B1, the Kd is reported as 7.8 nM.
